{"source": "patent US20250163167A1", "about": "(SYNTHEKINE, published 2025)", "binders": {"B1": {"name": "IL10R binding molecule of SEQ ID NO: 264 (bispecific antibody)", "chain": "QVQLQESGGGSVQAGGSLRLSCAASRFTYSSYCMGWFRQAPGKEREGVASIDSDGSTSYTDSVKGRFTISKDNAKNTLYLQMNSLKPEDTAMYYCALDLMSTVVPGFCGFLLSAGMDYWGKGTQVTVSSGGGSQVQLQESGGGSVQAGGSLRLSCAASGYTYSSYCMGWFRQAPGKEREGVAHIDSDGSTSYADSVKGRFTISKDNAKNTLYLQMNSLKPEDTAMYYCAADPIPGPGYCDGGPNKYWGQGTQVTVSSASHHHHHH"}, "B2": {"name": "IL10R binding molecule of SEQ ID NO: 351 (bispecific antibody)", "chain": "QVQLQESGGGSVQTGGSLRLSCAASGYTYLRGCMGWFRQAPGKEREGVAVMDVVGDRRSYIDSVKGRFTISRDNAANSVYLQMDNLKPEDTAMYYCTAGPNCVGWRSGLDYWGQGTQVTVSSGGGSQVQLQESGGGSVQAGGSLRLSCTVSGYTYSSNCMGWFRQAPGKEREGVATIYTGGGNTYYADSVKGRFTISQDNAKNTVYLQMNNLKPEDTAMYYCAAEPLSRVYGGSCPTPTFDYWGQGTQVTVSSASHHHHHH"}, "B3": {"name": "IL10R binding molecule of SEQ ID NO: 268 (bispecific antibody)", "chain": "QVQLQESGGGSVQAGGSLRLSCAASRFTYSSYCMGWFRQAPGKEREGVASIDSDGSTSYTDSVKGRFTISKDNAKNTLYLQMNSLKPEDTAMYYCALDLMSTVVPGFCGFLLSAGMDYWGKGTQVTVSSGGGSQVQLQESGGGSVQAGGSLRLSCAASGYSYSSYCMGWFRQAPGKEREGVATIDSDGMTRYADSVKGRFTISKDNAKNTLYLQMNSLKPEDTAMYYCAAPLYDCDSGAVGRNPPYWGQGTQVTVSSASHHHHHH"}, "B4": {"name": "IL10R binding molecule of SEQ ID NO: 265 (bispecific antibody)", "chain": "QVQLQESGGGSVQAGGSLRLSCAASRFTYSSYCMGWFRQAPGKEREGVASIDSDGSTSYTDSVKGRFTISKDNAKNTLYLQMNSLKPEDTAMYYCALDLMSTVVPGFCGFLLSAGMDYWGKGTQVTVSSGGGSQVQLQESGGGSVQAGGSLRLSCAASRYTYNSYCMGWFRQAPGKEREGVATIDSDGMTRYADSVKGRFTISKDNAKNTLYLQMNSLKPEDTAMYYCAADADCTIAAMTTNPLGQGTQVTVSSASHHHHHH"}, "B5": {"name": "IL10R binding molecule of SEQ ID NO: 256 (bispecific antibody)", "chain": "QVQLQESGGGSVQAGGSLRLSCAASRYLYSIDYMAWFRQSPGKEREPVAVIYTASGATFYPDSVKGRFTISQDNAKMTVYLQMNSLKSEDTAMYYCAAVRKTDSYLFDAQSFTYWGQGTQVTVSSGGGSQVQLQESGGGSVQAGGSLRLSCAASGYTYSSGCMGWFRQAPGKEREAVAAINSDGSTSYADSVKGRFTISKDNAKNTLYLQMNSLKPEDTAMYYCAAEPYCSGGYPRWSVAEFGYWGQGTQVTVSSASHHHHHH"}, "B6": {"name": "IL10R binding molecule of SEQ ID NO: 270 (bispecific antibody)", "chain": "QVQLQESGGGSVQAGGSLRLSCAASGYTYSMYCMGWFRQAPGKEREGVAQINSDGSTSYADSVKGRFTISKDNAKNTLYLQMNSLKPEDTAMYYCAADSRVYGGSWYERLCGPYTYEYNYWGQGTQVTVSSGGGSQVQLQESGGGSVQAGGSLRLSCAASGYTYSSGCMGWFRQAPGKEREAVAAINSDGSTSYADSVKGRFTISKDNAKNTLYLQMNSLKPEDTAMYYCAAEPYCSGGYPRWSVAEFGYWGQGTQVTVSSASHHHHHH"}, "B7": {"name": "IL10R binding molecule of SEQ ID NO: 273 (bispecific antibody)", "chain": "QVQLQESGGGSVQAGGSLRLSCAASGYTYSMYCMGWFRQAPGKEREGVAQINSDGSTSYADSVKGRFTISKDNAKNTLYLQMNSLKPEDTAMYYCAADSRVYGGSWYERLCGPYTYEYNYWGQGTQVTVSSGGGSQVQLQESGGGSVQAGGSLRLSCTVSRYTASVNYMGWFRQAPGKEREGVATIFTGAGTTYYANSVKGRFTISRDNAKNTAYLQMNSLKPEDTAIYYCAVDFRGGLLYRPAYEYTYRGQGTQVTVSSASHHHHHH"}, "B8": {"name": "IL10R binding molecule of SEQ ID NO: 352 (bispecific antibody)", "chain": "QVQLQESGGGSVQTGGSLRLSCAASGYTYLRGCMGWFRQAPGKEREGVAVMDVVGDRRSYIDSVKGRFTISRDNAANSVYLQMDNLKPEDTAMYYCTAGPNCVGWRSGLDYWGQGTQVTVSSGGGSQVQLQESGGGSVQAGGSLRLSCGASGYTYSSYCMGWFRQVPGKEREGVAVIDSDGSTSYADSVKGRFTISKDNGKNTLYLQMNSLKPEDTAMYYCAADLGHYRPPCGVLYLGMDYWGKGTQVTVSSASHHHHHH"}, "B9": {"name": "IL10R binding molecule of SEQ ID NO: 267 (bispecific antibody)", "chain": "QVQLQESGGGSVQAGGSLRLSCAASRFTYSSYCMGWFRQAPGKEREGVASIDSDGSTSYTDSVKGRFTISKDNAKNTLYLQMNSLKPEDTAMYYCALDLMSTVVPGFCGFLLSAGMDYWGKGTQVTVSSGGGSQVQLQESGGGSVEAGGSLRLSCAASGYTHSSYCMGWFRQAPGKEREGVAAIDVDGSTTYADSVKGRFTISKDNAKNTLYLQMNSLKPEDTGMYYCAAEFADCSSNYFLPPGAVRYWGQGTQVTVSSASHHHHHH"}, "B10": {"name": "IL10R binding molecule of SEQ ID NO: 274 (bispecific antibody)", "chain": "QVQLQESGGGSVQAGGSLRLSCAASGYTYSMYCMGWFRQAPGKEREGVAQINSDGSTSYADSVKGRFTISKDNAKNTLYLQMNSLKPEDTAMYYCAADSRVYGGSWYERLCGPYTYEYNYWGQGTQVTVSSGGGSQVQLQESGGGSVEAGGSLRLSCAASGYTHSSYCMGWFRQAPGKEREGVAAIDVDGSTTYADSVKGRFTISKDNAKNTLYLQMNSLKPEDTGMYYCAAEFADCSSNYFLPPGAVRYWGQGTQVTVSSASHHHHHH"}, "B11": {"name": "IL10R binding molecule of SEQ ID NO: 350 (bispecific antibody)", "chain": "QVQLQESGGGSVQTGGSLRLSCAASGYTYLRGCMGWFRQAPGKEREGVAVMDVVGDRRSYIDSVKGRFTISRDNAANSVYLQMDNLKPEDTAMYYCTAGPNCVGWRSGLDYWGQGTQVTVSSGGGSQVQLQESGGGSVQAGGSLRLSCAVSGYAYSTYCMGWFRQAPGKEREGVAAIDSGGSTSYADSVKGRFTISKDNAKNTLYLRMNSLKPEDTAMYYCAAVPPPPDGGSCLFLGPEIKVSKADFRYWGQGTQVTVSSASHHHHHH"}, "B12": {"name": "IL10R binding molecule of SEQ ID NO: 272 (bispecific antibody)", "chain": "QVQLQESGGGSVQAGGSLRLSCAASGYTYSMYCMGWFRQAPGKEREGVAQINSDGSTSYADSVKGRFTISKDNAKNTLYLQMNSLKPEDTAMYYCAADSRVYGGSWYERLCGPYTYEYNYWGQGTQVTVSSGGGSQVQLQESGGGSVQAGGSLRLSCAASRYTYNSYCMGWFRQAPGKEREGVATIDSDGMTRYADSVKGRFTISKDNAKNTLYLQMNSLKPEDTAMYYCAADADCTIAAMTTNPLGQGTQVTVSSASHHHHHH"}, "B13": {"name": "IL10R binding molecule of SEQ ID NO: 271 (bispecific antibody)", "chain": "QVQLQESGGGSVQAGGSLRLSCAASGYTYSMYCMGWFRQAPGKEREGVAQINSDGSTSYADSVKGRFTISKDNAKNTLYLQMNSLKPEDTAMYYCAADSRVYGGSWYERLCGPYTYEYNYWGQGTQVTVSSGGGSQVQLQESGGGSVQAGGSLRLSCAASGYTYSSYCMGWFRQAPGKEREGVAHIDSDGSTSYADSVKGRFTISKDNAKNTLYLQMNSLKPEDTAMYYCAADPIPGPGYCDGGPNKYWGQGTQVTVSSASHHHHHH"}, "B14": {"name": "IL10R binding molecule of SEQ ID NO: 353 (bispecific antibody)", "chain": "QVQLQESGGGSVQTGGSLRLSCAASGYTYLRGCMGWFRQAPGKEREGVAVMDVVGDRRSYIDSVKGRFTISRDNAANSVYLQMDNLKPEDTAMYYCTAGPNCVGWRSGLDYWGQGTQVTVSSGGGSQVQLQESGGGSVQAGGSLRLSCAASGYSNCSYDMTWYRQAPGKEREFVSAIHSDGSTRYADSVKGRFFISQDNAKNTVYLQMNSLKPEDTAMYYCKTDPLHCRAHGGSWYSVRANYWGQGTQVTVSSASHHHHHH"}, "B15": {"name": "IL10R binding molecule of SEQ ID NO: 269 (bispecific antibody)", "chain": "QVQLQESGGGSVQAGGSLRLSCAASRFTYSSYCMGWFRQAPGKEREGVASIDSDGSTSYTDSVKGRFTISKDNAKNTLYLQMNSLKPEDTAMYYCALDLMSTVVPGFCGFLLSAGMDYWGKGTQVTVSSGGGSQVQLQESGGGSVQTGGSLRLSCAASGYTYLRGCMGWFRQAPGKEREGVAVMDVVGDRRSYIDSVKGRFTISRDNAANSVYLQMDNLKPEDTAMYYCTAGPNCVGWRSGLDYWGQGTQVTVSSASHHHHHH"}, "B16": {"name": "IL10R binding molecule of SEQ ID NO: 266 (bispecific antibody)", "chain": "QVQLQESGGGSVQAGGSLRLSCAASRFTYSSYCMGWFRQAPGKEREGVASIDSDGSTSYTDSVKGRFTISKDNAKNTLYLQMNSLKPEDTAMYYCALDLMSTVVPGFCGFLLSAGMDYWGKGTQVTVSSGGGSQVQLQESGGGSVQAGGSLRLSCTVSRYTASVNYMGWFRQAPGKEREGVATIFTGAGTTYYANSVKGRFTISRDNAKNTAYLQMNSLKPEDTAIYYCAVDFRGGLLYRPAYEYTYRGQGTQVTVSSASHHHHHH"}}}
{"target": "T1, human IL-10 receptor (hIL-10R alpha and beta chains) on HEK-Blue IL-10 reporter cells (human, UniProt Q13651 22-578; Q08334 20-325)", "T1 sequence 1": "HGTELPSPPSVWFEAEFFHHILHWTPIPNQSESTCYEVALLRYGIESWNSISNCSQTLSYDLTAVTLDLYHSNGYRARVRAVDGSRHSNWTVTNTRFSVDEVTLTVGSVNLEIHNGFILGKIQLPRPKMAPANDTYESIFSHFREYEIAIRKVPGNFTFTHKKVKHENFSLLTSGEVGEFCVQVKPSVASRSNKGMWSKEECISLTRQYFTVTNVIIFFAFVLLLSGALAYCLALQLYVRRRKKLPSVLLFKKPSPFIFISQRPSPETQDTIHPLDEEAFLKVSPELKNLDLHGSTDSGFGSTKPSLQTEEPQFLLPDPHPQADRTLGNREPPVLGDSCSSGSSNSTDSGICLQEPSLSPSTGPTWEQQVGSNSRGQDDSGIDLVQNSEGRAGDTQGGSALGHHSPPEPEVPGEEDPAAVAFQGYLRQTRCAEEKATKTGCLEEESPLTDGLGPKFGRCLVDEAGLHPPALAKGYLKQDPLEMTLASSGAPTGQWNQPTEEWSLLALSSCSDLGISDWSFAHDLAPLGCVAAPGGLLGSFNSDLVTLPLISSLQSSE", "T1 sequence 2": "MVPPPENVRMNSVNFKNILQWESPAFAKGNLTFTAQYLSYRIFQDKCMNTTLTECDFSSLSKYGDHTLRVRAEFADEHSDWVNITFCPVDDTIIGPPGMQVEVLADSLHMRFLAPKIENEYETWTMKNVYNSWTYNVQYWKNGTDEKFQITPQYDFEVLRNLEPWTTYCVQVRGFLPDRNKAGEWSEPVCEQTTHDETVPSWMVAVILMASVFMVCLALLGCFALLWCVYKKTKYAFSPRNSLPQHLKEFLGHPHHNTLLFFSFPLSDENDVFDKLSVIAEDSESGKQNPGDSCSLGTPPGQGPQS", "assay": "cell-based or functional assay", "units": {"Abs 630 (25 nM)": "Abs 630", "Abs 630 (100 nM)": "Abs 630"}}
{"binder": "B1", "Abs 630 (25 nM)": 1.52, "Abs 630 (100 nM)": 0.67}
{"binder": "B2", "Abs 630 (25 nM)": 0.43, "Abs 630 (100 nM)": 0.34}
{"binder": "B3", "Abs 630 (25 nM)": 0.53, "Abs 630 (100 nM)": 0.41}
{"binder": "B4", "Abs 630 (25 nM)": 0.54, "Abs 630 (100 nM)": 0.46}
{"binder": "B5", "Abs 630 (25 nM)": 0.49, "Abs 630 (100 nM)": 0.39}
{"binder": "B6", "Abs 630 (25 nM)": 1.41, "Abs 630 (100 nM)": 0.73}
{"binder": "B7", "Abs 630 (25 nM)": 0.52, "Abs 630 (100 nM)": 0.41}
{"binder": "B8", "Abs 630 (25 nM)": 0.54, "Abs 630 (100 nM)": 0.65}
{"binder": "B9", "Abs 630 (25 nM)": 0.75, "Abs 630 (100 nM)": 0.53}
{"binder": "B10", "Abs 630 (25 nM)": 0.46, "Abs 630 (100 nM)": 0.37}
{"binder": "B11", "Abs 630 (25 nM)": 0.43, "Abs 630 (100 nM)": 0.35}
{"binder": "B12", "Abs 630 (25 nM)": 0.47, "Abs 630 (100 nM)": 0.38}
{"binder": "B13", "Abs 630 (25 nM)": 1.93, "Abs 630 (100 nM)": 1.65}
{"binder": "B14", "Abs 630 (25 nM)": 0.56, "Abs 630 (100 nM)": 0.61}
{"binder": "B15", "Abs 630 (25 nM)": 0.46, "Abs 630 (100 nM)": 0.37}
{"binder": "B16", "Abs 630 (25 nM)": 0.49, "Abs 630 (100 nM)": 0.39}
